Data from patent US20260232802A1 (published 2026).

T1: Human Telomerase Reverse Transcriptase (hTERT) peptide on HLA-A*03:01 (human)
T1 peptide: SVLNYERARR

T2: Survivin (BIRC5) peptide on HLA-A*02:01 (human)
T2 peptide: LTLGEFLKL

T3: Survivin (BIRC5), modified form of the peptide peptide on HLA-A*02:01 (human)
T3 peptide: LMLGEFLKL


Assays:
[1] = molecular target: T1, Human Telomerase Reverse Transcriptase …; assay: multimer staining
[2] = molecular target: T2, Survivin (BIRC5) peptide on HLA-A*02:01; assay: killing
Protocol: (A) Survivin-specific transgenic T cells were co-cultured with Survivin⁺ primary AML blasts expressing (target blasts) or not (control blasts) the HLA-A0201⁺ allele in 1:1 effector to target ratio. After 24 hours, elimination index was calculated as [1-(number of alive blasts cultured with edited T cells/number of alive blasts alone)]. (B) Survivin-specific transgenic T cells were co-cultured with Survivin⁺ primary AML blasts expressing (target blasts, upper) or not (control blasts, lower) the HLA-A0201⁺ allele in 1:1 effector to target ratio. Killing is represented as area covered (μm²) by cells undergoing apoptosis (caspase 3/7 activation) overtime. […] Data are presented as means±SD. ****P<0.0001, by Student t-test (A) or two-way ANOVA (B).
For killing assay cells were plated and kept at 37° C. and 5% CO2 after the addition of anti-CD28 monoclonal antibodies (1 μg/ml; BD biosciences) for 72 hours in case of co-culture with cell lines, and for 24 hours for co-cultures with primary AML blasts. […] Viable target cells were counted using counting beads (Flow-count fluorospheres, Beckman Coulter), according to manufacturer's instructions. Elimination index was calculated according to the formula: [1-(number of alive target cells in culture with effector T cells/number of alive target cells in control culture)]. […] Data were analyzed by FlowJo software version 10 (BD).

[3] = molecular target: T3, Survivin (BIRC5), modified form of the …; assay: multimer staining

Binder | binding result [1] | binding result [2] | binding result [3]
hTERT #4 (TCR, V domains shown) Valpha: GIQVEQSPPDLILQEGANSTLRCNFSDSVNNLQWFHQNPWGQLINLFYIPSGTKQNGRLSATTVATERYSLLYISSSQTTDSGVYFCAVSHGRGGATNKLIFGTGTLLAVQP Vbeta: NAGVTQTPKFQVLKTGQSMTLQCAQDMNHNSMYWYRQDPGMGLRLIYYSASEGTTDKGEVPNGYNVSRLNKREFSLRLESAAPSQTSVYFCASDRVLGYEQYFGPGTRLTVT | recognises |  | 
hTERT #3 (TCR, V domains shown) Valpha: KDQVFQPSTVASSEGAVVEIFCNHSVSNAYNFFWYLHFPGCAPRLLVKGSKPSQQGRYNMTYERFSSSLLILQVREADAAVYYCAVETGGGATNKLIFGTGTLLAVQP Vbeta: NAGVTQTPKFQVLKTGQSMTLQCAQDMNHNSMYWYRQDPGMGLRLIYYSASEGTTDKGEVPNGYNVSRLNKREFSLRLESAAPSQTSVYFCASSEFWLTQETQYFGPGTRLLVL | recognises |  | 
Survivin TCR (TCR, V domains shown) Valpha: SQKIEQNSEALNIQEGKTATLTCNYTNYSPAYLQWYRQDPGRGPVFLLLIRENEKEKRKERLKVTFDTTLKQSLFHITASQPADSATYLCALDRMDSSYKLIFGSGTRLLVRP Vbeta: NAGVTQTPKFQVLKTGQSMTLQCAQDMNHEYMSWYRQDPGMGLRLIHYSVGAGITDQGEVPNGYNVSRSTTEDFPLRLLSAAPSQTSVYFCASSYDQDGEAFFGQGTRLTVV |  | recognises | recognises
hTERT #1 (TCR, V domains shown) Valpha: GENVEQHPSTLSVQEGDSAVIKCTYSDSASNYFPWYKQELGKRPQLIIDIRSNVGEKKDQRIAVTLNKTAKHFSLHITETQPEDSAVYFCADWVDMRFGAGTRLTVKP Vbeta: GAVVSQHPSWVICKSGTSVKIECRSLDFQATTMFWYRQFPKQSLMLMATSNEGSKATYEQGVEKDKFLINHASLTLSTLTVTSAHPEDSSFYICSAPLDRGSNQPQHFGDGTRLSIL | recognises |  | 
hTERT #2 (TCR, V domains shown) Valpha: GQNIDQPTEMTATEGAIVQINCTYQTSGFNGLFWYQQHAGEAPTFLSYNVLDGLEEKGRFSSFLSRSKGYSYLLLKELQMKDSASYLCAVSRPNSGYSTLTFGKGTMLLVSP Vbeta: AAGVIQSPRHLIKEKRETATLKCYPIPRHDTVYWYQQGPGQDPQFLISFYEKMQSDKGSIPDRFSAQQFSDYHSELNMSSLELGDSALYFCASSVRTPSGQETQYFGPGTRLLVL | recognises |  | 
